From US20160304565A1 (US Dept. of Health and Human Services, published 2016)

Target: the molecule itself
Test: gel filtration chromatography (self-association)

B1: E. coli-produced, properly folded RSV G0-dTM (67-298) protein of the RSV-A2 strain, C-terminal His6 tag (other)
chain: HKVTPTTAIIQDATSQIKNTTPTYLTQNPQLGISPSNPSEITSQITTILASTTPGVKSTLQSTTVKTKNTTTTQTQPSKPTTKQRQNKPPSKPNNDFHFEVFNFVPCSICSNNPTCWAICKRIPNKKPGKKTTTKPTKKPTLKTTKKDPKPQTTKSKEVPTTKPTEEPTINTTKTNIITTLLTSNTTGNPELTSQMETFHSTSSEGNPSPSQVSTTSEYPSQPSSPPNTPRQHHHHHH
notes: also called REG; bacterially produced RSV-A2 G
binding result: binds
